These results are taken from patent CN110577603A (BEIJING DONGFANG BIOTECH CO LTD, dated 2019).

As usually defined, the EC50 is the concentration that produces a half-maximal response.

Test [1] concerns the target T1, CD19 (on Raji lymphoma cells) (UniProt P15391 20-556, limits assumed).
T1 sequence (looked up): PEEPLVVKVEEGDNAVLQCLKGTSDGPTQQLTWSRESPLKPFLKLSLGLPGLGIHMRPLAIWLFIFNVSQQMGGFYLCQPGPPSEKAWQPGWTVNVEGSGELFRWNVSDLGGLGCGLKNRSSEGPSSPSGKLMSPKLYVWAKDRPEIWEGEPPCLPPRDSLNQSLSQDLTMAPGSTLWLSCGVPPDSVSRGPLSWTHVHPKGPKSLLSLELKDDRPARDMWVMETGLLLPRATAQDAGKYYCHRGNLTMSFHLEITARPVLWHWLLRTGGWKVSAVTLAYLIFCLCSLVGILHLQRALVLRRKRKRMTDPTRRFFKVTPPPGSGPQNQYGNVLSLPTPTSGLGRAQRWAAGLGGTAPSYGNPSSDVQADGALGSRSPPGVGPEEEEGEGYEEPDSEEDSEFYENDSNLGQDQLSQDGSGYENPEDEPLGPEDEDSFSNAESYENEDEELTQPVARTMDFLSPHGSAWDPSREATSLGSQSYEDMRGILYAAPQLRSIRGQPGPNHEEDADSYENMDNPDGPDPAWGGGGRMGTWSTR
Description: cell-based or functional assay.

In test [2] the target is T1, CD19 (on Raji lymphoma cells). Description: flow cytometry on Raji cells (CD19 positive), Alexa488 anti-human IgG-Fc, MFI fitted. (Flow cytometry measures light scatter and fluorescence of single cells or particles in a stream.)
The target in test [3] is T2, CD3 (on Jurkat T cells) (UniProt P07766 23-207).
T2 construct: whole, on cells; Jurkat is a human cell line; also called CD3抗原; 细胞表面CD3
Description: flow cytometry on Jurkat cells (CD3 positive), Alexa488 anti-human IgG-Fc, MFI fitted.

T2 sequence (P07766 23-207): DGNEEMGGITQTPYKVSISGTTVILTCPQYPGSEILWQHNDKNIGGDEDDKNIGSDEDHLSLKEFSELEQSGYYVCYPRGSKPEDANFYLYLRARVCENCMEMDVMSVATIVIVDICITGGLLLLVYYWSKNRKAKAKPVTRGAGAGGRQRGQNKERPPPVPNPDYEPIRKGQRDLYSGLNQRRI

B1: 抗CD3和抗CD19双特异性抗体 JY039 (bispecific antibody)
chain (part 1 of 2): not shown
chain (part 2 of 2): not shown
heavy: QVQLQQSGAELVRPGSSVKISCKASGYAFSSYWMNWVKQRPGQGLEWIGQIWPGDGDTNYNGKFKGKATLTADESSSTAYMQLSSLASEDSAVYFCARRETTTVGRYYYAMDYWGQGTTVTVSS
light: DIQLTQSPASLAVSLGQRATISCKASQSVDYDGDSYLNWYQQIPGQPPKLLIYDASNLVSGIPPRFSGSGSGTDFTLNIHPVEKVDAATYHCQQSTEDPWTFGGGTKLEIK
notes: Three chains: anti-CD3 single-chain unit (full light chain - linker - full heavy chain), anti-CD19 heavy chain, anti-CD19 light chain; constant regions preferably IgG4, linker preferably (GGGGS)6; also called 双特异抗体JY039; not shown: linker (GGGGX)n, X = Gly or Ser, n = 1-6; preferred X = Ser and n = 6; IgG4 heavy chain constant region (preferred; light chain constant region of the anti-CD19 unit; …)
In the case of B1, the “EC50 of PBMC-mediated killing of Raji cells (LDH release)” value (“EC50 … (LDH release)” for short) in test [1] came to 0.00126 nM. This molecule had an EC50 in test [2] of 1.02 nM.

B2: 抗CD19的单克隆抗体 (built from the anti-CD19 sequences of JY039) (antibody, V domains shown)
VH: B1 heavy
VL: B1 light
notes: also called AntiCD19McAb; 抗CD19单克隆抗体
As to B2, the “EC50 … (LDH release)” value in test [1] worked out at 0.222 nM. The molecule further showed a concentration giving a half-maximal response (EC50) in test [2] of 0.191 nM.

B3: v5851双特异抗体 (专利CN105531374 A) (bispecific antibody)
chain 1: not shown
chain 2: not shown
chain 3: DIVMTQSPATLSLSPGERATLSCRSSKSLQNVNGNTYLYWFQQKPGQSPQLLIYRMSNLNSGVPDRFSGSGSGTEFTLTISSLEPEDFAVYYCMQHLEYPITFGAGTKLEIKRTVAAPSVFIFPPSDEQLKSGTASVVCLLNNFYPREAKVQWKVDNALQSGNSQESVTEQDSKDSTYSLSSTLTLSKADYEKHKVYACEVTHQGLSSPVTKSFNRGEC
In the case of B3, the “EC50 … (LDH release)” value in test [1] came out at 0.03 nM. The results for the EC50 in test [2] and in test [3] were 2.49 nM and 59.8 nM, respectively.
